The source of these data is PMC2658781, “Effective DNA Inhibitors of Cathepsin G by In Vitro Selection”.

Data set [1] has as its target T1, Cathepsin G (CatG) (Homo sapiens, UniProt P08311 21-244).
T1 sequence: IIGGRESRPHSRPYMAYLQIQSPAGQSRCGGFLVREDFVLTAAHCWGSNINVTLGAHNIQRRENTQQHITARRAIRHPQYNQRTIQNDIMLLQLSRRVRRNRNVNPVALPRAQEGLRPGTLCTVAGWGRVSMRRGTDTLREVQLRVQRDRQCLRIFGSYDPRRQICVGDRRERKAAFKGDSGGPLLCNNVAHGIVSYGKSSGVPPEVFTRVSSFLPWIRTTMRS
The data set is described as follows: SP Sepharose chromatography (Kd in figure only); 5 mM Mg2+; SELEX and Kd: 30 mM Tris-HCl pH 7.5, 150 mM NaCl, 5 mM KCl, 5 mM MgCl2, on ice/4 C; SPR: immobilized CatG, HBS-EP pH 7.4 running buffer, oligos in the Tris buffer, 25 C. The following applies: protein: native, label: 5' 32P.

Data set [2] has as its target T1, Cathepsin G (CatG). The data set is described as follows: SP Sepharose chromatography; no appreciable affinity; SELEX and Kd: 30 mM Tris-HCl pH 7.5, 150 mM NaCl, 5 mM KCl, 5 mM MgCl2, on ice/4 C; SPR: immobilized CatG, HBS-EP pH 7.4 running buffer, oligos in the Tris buffer, 25 C. The following applies: protein: native, label: 5' 32P.

B1: cCG51 (ssDNA)
DNA: ACACGAATACCCTCTGTGCTCAGCGTAACACCCAAGCGTATACCCACATATCACACGTTG
Regarding B1, the binding result in data set [1] is given as “binds”.

B2: pE35 (PE35), L-Tyr aptamer (ssDNA)
DNA: AATTCGCTAGCTGGAGCTTGGATTGATGTGGTGTGTGAGTGCGGTGCCCGGATCC
For B2, in data set [2], the binding result is reported as “no binding”. On to GGTTGGTGTGGTTGG (structured_DNA) [THR, thrombin aptamer], for which the binding result in data set [2] (G-quartet, intramolecular) is “no binding”.

B3: CG51 (ssDNA)
DNA: CAACGTGTGATATGTGGGTATACGCTTGGGTGTTACGCTGAGCACAGAGGGTATTCGTGT
In the case of B3, the binding result in data set [1] (predicted fold about -2.52 kcal/mol) is recorded as “binds”.
